The results in this text go back to patent US20120114652A1.

Assay [1] has as its target Antibody 16, IgG1, not germlined. As to the kind of experiment: competition binding assay: Antibody 16 IgG adsorbed to the plate, biotinylated active human PAI-1 at about its KD, dilution series of the unlabelled competitor (the varied molecule), detection with streptavidin-Europium.
Another assay has as its target T1, rat PAI-1 (rat) (UniProt P20961).
T1 sequence: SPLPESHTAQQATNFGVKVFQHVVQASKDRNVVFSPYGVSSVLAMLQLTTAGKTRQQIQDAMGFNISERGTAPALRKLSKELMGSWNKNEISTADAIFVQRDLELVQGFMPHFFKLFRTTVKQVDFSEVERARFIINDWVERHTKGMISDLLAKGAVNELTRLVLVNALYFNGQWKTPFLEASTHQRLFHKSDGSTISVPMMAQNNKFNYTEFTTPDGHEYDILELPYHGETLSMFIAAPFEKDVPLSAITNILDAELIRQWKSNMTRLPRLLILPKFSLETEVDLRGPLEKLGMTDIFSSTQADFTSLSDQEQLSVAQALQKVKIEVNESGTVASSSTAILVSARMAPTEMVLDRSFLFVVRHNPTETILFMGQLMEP
As to the kind of experiment: cell-based or functional assay.

The target of assay [2] is human PAI-1, active, wild-type, non-glycosylated (E. coli-derived) (human) (UniProt P05121). As to the kind of experiment: cell-based or functional assay.
Assay [3] concerns the target cynomolgus PAI-1 (cynomolgus). As to the kind of experiment: cell-based or functional assay.
The target of another assay is T2, mouse PAI-1 (mouse) (UniProt P22777).
T2 sequence: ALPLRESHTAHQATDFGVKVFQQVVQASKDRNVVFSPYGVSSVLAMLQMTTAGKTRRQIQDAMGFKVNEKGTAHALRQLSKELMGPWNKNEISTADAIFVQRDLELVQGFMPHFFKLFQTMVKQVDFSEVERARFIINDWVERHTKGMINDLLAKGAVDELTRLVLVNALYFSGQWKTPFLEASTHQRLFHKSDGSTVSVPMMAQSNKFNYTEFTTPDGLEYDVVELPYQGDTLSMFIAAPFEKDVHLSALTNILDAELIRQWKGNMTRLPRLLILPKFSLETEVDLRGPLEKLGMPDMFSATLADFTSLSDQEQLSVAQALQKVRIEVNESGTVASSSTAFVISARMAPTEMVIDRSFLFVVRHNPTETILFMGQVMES
The assay can be described thus: cell-based or functional assay.

B1: mouse PAI-1 (protein)
chain: ALPLRESHTAHQATDFGVKVFQQVVQASKDRNVVFSPYGVSSVLAMLQMTTAGKTRRQIQDAMGFKVNEKGTAHALRQLSKELMGPWNKNEISTADAIFVQRDLELVQGFMPHFFKLFQTMVKQVDFSEVERARFIINDWVERHTKGMINDLLAKGAVDELTRLVLVNALYFSGQWKTPFLEASTHQRLFHKSDGSTVSVPMMAQSNKFNYTEFTTPDGLEYDVVELPYQGDTLSMFIAAPFEKDVHLSALTNILDAELIRQWKGNMTRLPRLLILPKFSLETEVDLRGPLEKLGMPDMFSATLADFTSLSDQEQLSVAQALQKVRIEVNESGTVASSSTAFVISARMAPTEMVIDRSFLFVVRHNPTETILFMGQVMES
Consider B1, for which the IC50 (read off the curve) in assay [1] worked out at 5 nM.

B2: PICK167_A01 scFv (scFv)
scFv: QVQLQQSGAEVKKPGSSVKVSCKASGGTFSSYAISWVRQAPGQRLEWMGGIIPTFGTANYAQKFQGRVTITADESTSTAYMELSGLRSEDTAVYYCARERRQWLEGHFDYWGRGTPVTVSSGGGGSGGGGSGGGGSDIQMTQSPSFLSASIGDRVTITCRASEGIYHNLAWYQQKPGKAPKLLIYKASSLASGAPSRFSGSRSGTDFTLTISSLQPDDFATYYCQQYSNYPLTFGGGTKLEIKR
In the case of B2, the IC50, HT1080 plasminogen activation assay in the assay with rat PAI-1 (rat) was found to be 49 nM; in assay [2], 22 nM; with mouse PAI-1 (mouse), 25 nM. Besides, the results for the IC50, PAI-1:tPA functional assay (with rat PAI-1 (rat); in assay [2]; in assay [3]) were 2.98 nM, 3.2 nM and 1.02 nM, respectively. The pIC50, HT1080 plasminogen activation assay was found to be 7.31 with rat PAI-1 (rat), 7.65 in assay [2] and 7.6 with mouse PAI-1 (mouse).

B3: rat PAI-1 (protein)
chain: SPLPESHTAQQATNFGVKVFQHVVQASKDRNVVFSPYGVSSVLAMLQLTTAGKTRQQIQDAMGFNISERGTAPALRKLSKELMGSWNKNEISTADAIFVQRDLELVQGFMPHFFKLFRTTVKQVDFSEVERARFIINDWVERHTKGMISDLLAKGAVNELTRLVLVNALYFNGQWKTPFLEASTHQRLFHKSDGSTISVPMMAQNNKFNYTEFTTPDGHEYDILELPYHGETLSMFIAAPFEKDVPLSAITNILDAELIRQWKSNMTRLPRLLILPKFSLETEVDLRGPLEKLGMTDIFSSTQADFTSLSDQEQLSVAQALQKVKIEVNESGTVASSSTAILVSARMAPTEMVLDRSFLFVVRHNPTETILFMGQLMEP
Turning to B3, in assay [1], the IC50 (read off the curve) was 2 nM.
